Assay results published in patent publication US20260184814A1, “BROADLY NE[…] INFLUENZA NEURAMINIDASE” (priority 2022, published 2026).

Columns and labels:
[1] = biological target: human FcγRIIa (H131 allele) (human) (UniProt P12318); assay: Table B summary, vs fucosylated wild-type human IgG1
[2] = biological target: human FcγRIIa (R131 allele) (human) (UniProt P12318); assay: as above
[3] = biological target: human FcγRIIb (human) (UniProt P31994)
[4] = biological target: human FcγRIIIa (F158 allele) (human) (UniProt P08637)
Chain of human FcγRIIIa (F158 allele) (human) (P08637 17-208 limits assumed): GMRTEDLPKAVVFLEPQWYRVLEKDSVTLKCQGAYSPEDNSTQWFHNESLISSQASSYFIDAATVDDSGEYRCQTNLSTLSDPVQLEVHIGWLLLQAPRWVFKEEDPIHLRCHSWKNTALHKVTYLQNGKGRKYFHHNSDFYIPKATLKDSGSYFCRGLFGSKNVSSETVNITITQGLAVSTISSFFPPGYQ

[5] = biological target: human FcγRIIIa (V158 allele) (human) (UniProt P08637)
Chain of human FcγRIIIa (V158 allele) (human) (P08637 17-208 F176V limits assumed): as the sequence (P08637 17-208 limits assumed) above, with F160V counted along it

[6] = biological target: human FcγRIIa (H131 allele) (human) (UniProt P12318)
[7] = biological target: human C1q (human) (UniProt P02745); assay: MSD [cont'd]
Chain of human C1q (human) (P02745 23-245 limits assumed, chain 1 of 3): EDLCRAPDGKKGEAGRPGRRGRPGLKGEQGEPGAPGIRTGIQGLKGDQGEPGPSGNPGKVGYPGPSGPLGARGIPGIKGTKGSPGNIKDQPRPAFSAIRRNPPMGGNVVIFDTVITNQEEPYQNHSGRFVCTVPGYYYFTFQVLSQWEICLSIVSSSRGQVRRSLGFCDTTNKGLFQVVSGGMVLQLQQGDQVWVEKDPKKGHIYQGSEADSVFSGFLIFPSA
Chain of human C1q (human) (P02746 28-253 limits assumed, chain 2 of 3, further chain): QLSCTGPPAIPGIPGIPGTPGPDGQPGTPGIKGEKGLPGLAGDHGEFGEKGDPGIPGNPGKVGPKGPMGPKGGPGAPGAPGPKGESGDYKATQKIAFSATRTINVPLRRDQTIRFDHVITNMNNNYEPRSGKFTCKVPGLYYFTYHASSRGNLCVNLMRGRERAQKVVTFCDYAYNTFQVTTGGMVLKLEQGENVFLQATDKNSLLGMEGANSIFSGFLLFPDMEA
Chain of human C1q (human) (P02747 29-245 limits assumed, chain 3 of 3, further chain): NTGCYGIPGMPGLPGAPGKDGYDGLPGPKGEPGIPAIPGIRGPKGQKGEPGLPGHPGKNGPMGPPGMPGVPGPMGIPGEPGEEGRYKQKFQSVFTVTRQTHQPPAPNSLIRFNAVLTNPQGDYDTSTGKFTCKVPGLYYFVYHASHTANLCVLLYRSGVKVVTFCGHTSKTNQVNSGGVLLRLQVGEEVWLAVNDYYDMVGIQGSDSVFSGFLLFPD

[8] = biological target: human FcγRIIb (human) (UniProt P31994); assay: MSD [cont'd]
[9] = biological target: human FcγRIIIa (F158 allele) (human) (UniProt P08637); assay: MSD [cont'd]
[10] = biological target: human FcγRIIIa (V158 allele) (human) (UniProt P08637); assay: MSD [cont'd]
[11] = biological target: human FcRn (human) (UniProt P55899); assay: MSD [cont'd]
Chain of human FcRn (human) (P55899 24-297 limits assumed, chain 1 of 2): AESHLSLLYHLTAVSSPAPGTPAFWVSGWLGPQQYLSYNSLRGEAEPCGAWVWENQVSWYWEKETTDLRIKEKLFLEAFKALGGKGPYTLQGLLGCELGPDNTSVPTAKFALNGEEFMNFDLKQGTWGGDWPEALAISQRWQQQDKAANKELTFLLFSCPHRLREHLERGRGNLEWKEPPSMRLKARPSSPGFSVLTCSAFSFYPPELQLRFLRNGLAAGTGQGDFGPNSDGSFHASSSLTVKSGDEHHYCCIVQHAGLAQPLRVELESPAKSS
Chain of human FcRn (human) (chain, as listed by the source limits assumed, chain 2 of 2): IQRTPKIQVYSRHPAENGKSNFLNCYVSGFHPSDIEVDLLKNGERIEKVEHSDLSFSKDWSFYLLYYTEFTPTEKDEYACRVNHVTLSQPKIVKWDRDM

[12] = biological target: human FcγRIIa (H131 allele) (human) (UniProt P12318); assay: MSD [cont'd]
[13] = biological target: human FcγRIIa (R131 allele) (human) (UniProt P12318); assay: MSD [cont'd]
[14] = biological target: human FcγRIIIb (human) (UniProt O75015); assay: MSD [cont'd]
Chain of human FcγRIIIb (human) (O75015 17-200 limits assumed): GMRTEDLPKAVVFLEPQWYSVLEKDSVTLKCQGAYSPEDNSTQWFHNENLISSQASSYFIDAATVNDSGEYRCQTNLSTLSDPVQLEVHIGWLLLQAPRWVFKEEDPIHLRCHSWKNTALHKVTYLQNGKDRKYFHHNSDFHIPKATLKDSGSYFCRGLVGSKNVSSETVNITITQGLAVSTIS

[15] = biological target: human FcRn (human) (UniProt P55899); assay: MSD, pH 6 [cont'd]
[16] = biological target: human C1q (human) (UniProt P02745); assay: MSD
[17] = biological target: human FcγRIIb (human) (UniProt P31994); assay: MSD
[18] = biological target: human FcγRIIIa (F158 allele) (human) (UniProt P08637); assay: MSD
[19] = biological target: human FcγRIIIa (V158 allele) (human) (UniProt P08637); assay: MSD
[20] = biological target: human FcRn (human) (UniProt P55899); assay: MSD
[21] = biological target: human FcγRIIa (H131 allele) (human) (UniProt P12318); assay: MSD
[22] = biological target: human FcγRIIa (R131 allele) (human) (UniProt P12318); assay: MSD
[23] = biological target: human FcγRIIIb (human) (UniProt O75015); assay: MSD

Chain of human FcγRIIb (human) (P31994 43-217 limits assumed): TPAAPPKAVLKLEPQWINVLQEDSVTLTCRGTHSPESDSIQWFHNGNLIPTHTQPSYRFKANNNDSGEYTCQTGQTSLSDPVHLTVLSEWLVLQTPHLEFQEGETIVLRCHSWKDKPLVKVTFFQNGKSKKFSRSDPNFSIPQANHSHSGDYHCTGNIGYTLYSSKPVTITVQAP
Chain of human FcγRIIa (H131 allele) (human) (P12318 34-218 limits assumed): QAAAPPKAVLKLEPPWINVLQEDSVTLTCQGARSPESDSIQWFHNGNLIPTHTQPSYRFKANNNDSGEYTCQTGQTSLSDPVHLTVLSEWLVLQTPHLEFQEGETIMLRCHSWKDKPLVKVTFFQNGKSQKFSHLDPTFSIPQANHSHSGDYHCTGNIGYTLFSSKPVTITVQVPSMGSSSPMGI
Chain of human FcγRIIa (R131 allele) (human) (P12318 34-218 H167R limits assumed): as the sequence (P12318 34-218 limits assumed) above, with H134R counted along it

IgG1 antibody with Fc variant G236A_R292P_Y300L
fold-change in binding vs fucosylated wild-type human IgG1 [1]: 14 fold
fold-change in binding vs fucosylated wild-type human IgG1 [2]: 2.7 fold
FcγR reporter signaling, fold-change vs wt [cont'd] [3]: 1.01 fold
FcγR reporter signaling, fold-change vs wt [cont'd] [4]: 6.15 fold
FcγR reporter signaling, fold-change vs wt [cont'd] [5]: 2.83 fold
FcγR reporter signaling, fold-change vs wt [cont'd] [6]: 1.87 fold
fold-change to WT Fc [7]: 1.01 fold
fold-change vs wt [7]: 1.01 fold
fold-change vs wt [8]: 0.94 fold
fold-change to WT Fc [9]: 3.71 fold
fold-change vs wt [9]: 3.71 fold
fold-change to WT Fc [10]: 2.69 fold
fold-change vs wt [10]: 2.69 fold
fold-change vs wt [11]: 0.83 fold
fold-change vs wt [12]: 14.2 fold
fold-change vs wt [13]: 2.71 fold
fold-change vs wt [14]: 1.03 fold
fold-change to WT Fc [15]: 0.828 fold
fold-change vs FY1 rIgG1m3 [16]: 1.01 fold
fold-change to WT Fc [17]: 0.94 fold
fold-change vs FY1 rIgG1m3 [17]: 0.9 fold
fold-change vs FY1 rIgG1m3 [18]: 3.7 fold
fold-change vs FY1 rIgG1m3 [19]: 2.7 fold
fold-change vs FY1 rIgG1m3 [20]: 0.8 fold
fold-change to WT Fc [21]: 14.2 fold
fold-change vs FY1 rIgG1m3 [21]: 14.2 fold
fold-change to WT Fc [22]: 2.71 fold
fold-change vs FY1 rIgG1m3 [22]: 2.7 fold
fold-change vs FY1 rIgG1m3 [23]: 1.03 fold
